Assay results: patent US10500249B2, “Compositions and methods for preventing or treating diseases, conditions, or processes characterized by aberrant fibroblast proliferation and extracellular matrix deposition” (MOERAE MATRIX, INC., priority 2014, dated 2019)

How the values were obtained:
Experiment in all cases: Kinase Profiling Assay
Type in all cases: biochemical
Conditions in all cases: 100 μM
[1] = target: T1, NLK (h) (Homo sapiens, UniProt Q9UBE8)
T1 construct: purchased Millipore
T1 sequence (Q9UBE8 1-527): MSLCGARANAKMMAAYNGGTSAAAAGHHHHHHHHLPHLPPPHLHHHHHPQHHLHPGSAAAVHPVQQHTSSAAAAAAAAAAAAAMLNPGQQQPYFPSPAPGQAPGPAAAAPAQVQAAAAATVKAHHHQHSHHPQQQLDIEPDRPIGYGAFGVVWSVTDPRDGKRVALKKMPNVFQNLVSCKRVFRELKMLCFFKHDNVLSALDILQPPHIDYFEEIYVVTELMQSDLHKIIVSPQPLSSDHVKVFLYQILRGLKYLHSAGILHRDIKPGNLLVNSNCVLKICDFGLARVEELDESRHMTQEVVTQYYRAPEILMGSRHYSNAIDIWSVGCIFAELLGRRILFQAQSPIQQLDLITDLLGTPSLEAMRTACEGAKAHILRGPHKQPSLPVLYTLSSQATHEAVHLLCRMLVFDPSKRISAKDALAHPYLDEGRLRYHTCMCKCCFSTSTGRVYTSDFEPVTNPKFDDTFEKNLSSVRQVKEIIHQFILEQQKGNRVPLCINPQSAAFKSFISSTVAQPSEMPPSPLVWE
Summary of the method: (§1)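 In this 266-kinase specificity panel, every measurement was duplicated. Transfer of labeled phosphate from ATP to a cationic substrate was quantified after the substrate adhered to an anionic filter membrane and was scintillation-counted, then related to a full-activity control.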

[2] = target: T2, PKCβII (h) (Homo sapiens, UniProt P05771)
T2 construct: purchased Millipore
Summary of the method: as §1

[3] = target: T3, LKB1 (h) (Homo sapiens, UniProt Q15831)
T3 sequence (Q15831 1-433): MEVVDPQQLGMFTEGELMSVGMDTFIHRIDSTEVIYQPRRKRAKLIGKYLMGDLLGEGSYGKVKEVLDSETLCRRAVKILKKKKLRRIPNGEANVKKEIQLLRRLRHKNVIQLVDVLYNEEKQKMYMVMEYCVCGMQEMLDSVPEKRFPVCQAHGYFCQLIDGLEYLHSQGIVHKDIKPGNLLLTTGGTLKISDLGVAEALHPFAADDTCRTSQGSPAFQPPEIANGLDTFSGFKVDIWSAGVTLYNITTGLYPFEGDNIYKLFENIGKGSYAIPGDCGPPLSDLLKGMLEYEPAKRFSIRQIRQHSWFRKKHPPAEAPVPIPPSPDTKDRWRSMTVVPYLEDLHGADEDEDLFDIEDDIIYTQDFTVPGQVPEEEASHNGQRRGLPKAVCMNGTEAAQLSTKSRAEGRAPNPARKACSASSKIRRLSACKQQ
T3 sequence (Q7RTN6 1-431 partner): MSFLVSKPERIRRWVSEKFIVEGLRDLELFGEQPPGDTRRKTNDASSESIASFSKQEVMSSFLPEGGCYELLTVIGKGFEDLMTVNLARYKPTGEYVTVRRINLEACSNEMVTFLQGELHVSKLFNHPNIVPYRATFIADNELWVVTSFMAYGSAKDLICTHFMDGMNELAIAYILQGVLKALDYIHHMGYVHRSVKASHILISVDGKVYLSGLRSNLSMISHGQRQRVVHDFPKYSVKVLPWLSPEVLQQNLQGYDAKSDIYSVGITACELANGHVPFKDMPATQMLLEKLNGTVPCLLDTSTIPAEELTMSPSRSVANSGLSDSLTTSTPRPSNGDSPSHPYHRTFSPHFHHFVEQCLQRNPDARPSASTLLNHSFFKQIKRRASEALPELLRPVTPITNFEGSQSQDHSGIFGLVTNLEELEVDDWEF
T3 sequence (Q9Y376 1-341 partner): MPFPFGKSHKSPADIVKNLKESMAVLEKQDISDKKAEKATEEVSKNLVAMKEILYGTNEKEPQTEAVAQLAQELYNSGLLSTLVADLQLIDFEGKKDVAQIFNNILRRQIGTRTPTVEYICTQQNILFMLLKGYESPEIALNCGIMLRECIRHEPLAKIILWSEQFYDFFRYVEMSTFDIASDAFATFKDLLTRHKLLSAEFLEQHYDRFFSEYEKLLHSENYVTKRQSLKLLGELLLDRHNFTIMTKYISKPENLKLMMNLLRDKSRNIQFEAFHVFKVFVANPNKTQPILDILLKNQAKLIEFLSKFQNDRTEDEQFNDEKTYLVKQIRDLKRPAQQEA
Summary of the method: as §1

[4] = target: T4, HIPK2 (h) (Homo sapiens, UniProt Q9H2X6)
T4 construct: purchased Millipore
Summary of the method: as §1

[5] = target: Abl (h) (Homo sapiens, UniProt P00519)
Summary of the method: as §1

[6] = target: SAPK2a(T106M) (h) (Homo sapiens, UniProt Q16539, T106M)
Summary of the method: as §1

[7] = target: T5, BrSK1 (h) (Homo sapiens, UniProt Q8TDC3)
T5 sequence (Q8TDC3 1-778): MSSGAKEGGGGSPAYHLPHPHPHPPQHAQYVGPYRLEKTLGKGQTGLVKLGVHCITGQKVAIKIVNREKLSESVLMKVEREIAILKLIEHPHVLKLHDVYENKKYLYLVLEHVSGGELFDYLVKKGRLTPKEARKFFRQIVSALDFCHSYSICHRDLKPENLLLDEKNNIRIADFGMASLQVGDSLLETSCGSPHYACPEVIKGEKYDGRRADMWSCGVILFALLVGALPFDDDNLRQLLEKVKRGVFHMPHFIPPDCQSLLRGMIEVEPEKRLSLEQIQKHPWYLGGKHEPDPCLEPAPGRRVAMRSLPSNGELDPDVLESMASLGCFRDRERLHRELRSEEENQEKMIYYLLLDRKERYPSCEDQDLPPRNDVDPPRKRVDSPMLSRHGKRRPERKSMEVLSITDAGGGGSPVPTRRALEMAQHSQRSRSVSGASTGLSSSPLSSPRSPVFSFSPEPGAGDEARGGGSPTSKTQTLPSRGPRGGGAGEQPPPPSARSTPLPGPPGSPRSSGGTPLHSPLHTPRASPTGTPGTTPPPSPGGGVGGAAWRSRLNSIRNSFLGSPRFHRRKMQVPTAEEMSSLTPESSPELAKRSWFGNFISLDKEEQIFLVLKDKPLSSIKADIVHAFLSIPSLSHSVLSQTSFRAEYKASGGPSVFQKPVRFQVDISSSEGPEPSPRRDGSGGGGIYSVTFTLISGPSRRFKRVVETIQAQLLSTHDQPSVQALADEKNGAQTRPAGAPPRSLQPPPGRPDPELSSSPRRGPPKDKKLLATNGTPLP
Summary of the method: as §1

Sequence of SAPK2a(T106M) (h) (Q16539 whole entry T106M): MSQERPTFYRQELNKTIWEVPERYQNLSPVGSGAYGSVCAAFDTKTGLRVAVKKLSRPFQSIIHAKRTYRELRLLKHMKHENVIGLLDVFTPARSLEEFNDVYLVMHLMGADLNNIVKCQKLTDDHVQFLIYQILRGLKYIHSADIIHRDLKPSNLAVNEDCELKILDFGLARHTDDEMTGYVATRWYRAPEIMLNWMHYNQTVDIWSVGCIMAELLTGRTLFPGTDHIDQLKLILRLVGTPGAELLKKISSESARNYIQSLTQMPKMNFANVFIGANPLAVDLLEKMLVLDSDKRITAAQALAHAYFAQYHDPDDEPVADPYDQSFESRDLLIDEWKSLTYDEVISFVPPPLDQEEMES
T2 sequence (P05771 1-673 isoform P05771-2): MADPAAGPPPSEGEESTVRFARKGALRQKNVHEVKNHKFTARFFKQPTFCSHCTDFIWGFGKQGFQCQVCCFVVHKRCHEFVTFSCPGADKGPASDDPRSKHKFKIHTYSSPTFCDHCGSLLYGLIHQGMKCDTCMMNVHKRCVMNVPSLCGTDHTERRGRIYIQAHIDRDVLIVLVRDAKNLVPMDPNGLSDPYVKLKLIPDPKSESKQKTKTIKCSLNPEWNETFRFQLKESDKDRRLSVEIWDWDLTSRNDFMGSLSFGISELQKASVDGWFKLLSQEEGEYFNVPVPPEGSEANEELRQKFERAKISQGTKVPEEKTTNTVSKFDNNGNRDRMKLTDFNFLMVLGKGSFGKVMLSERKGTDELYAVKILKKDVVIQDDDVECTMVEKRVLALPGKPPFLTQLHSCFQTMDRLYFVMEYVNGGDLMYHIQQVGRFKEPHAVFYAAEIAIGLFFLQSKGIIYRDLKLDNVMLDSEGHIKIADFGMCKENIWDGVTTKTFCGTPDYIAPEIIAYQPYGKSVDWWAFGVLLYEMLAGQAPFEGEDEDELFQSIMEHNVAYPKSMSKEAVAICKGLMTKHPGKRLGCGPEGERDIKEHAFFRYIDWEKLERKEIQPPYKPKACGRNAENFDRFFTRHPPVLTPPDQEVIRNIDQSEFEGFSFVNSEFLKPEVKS
Sequence of Abl (h) (P00519 whole entry): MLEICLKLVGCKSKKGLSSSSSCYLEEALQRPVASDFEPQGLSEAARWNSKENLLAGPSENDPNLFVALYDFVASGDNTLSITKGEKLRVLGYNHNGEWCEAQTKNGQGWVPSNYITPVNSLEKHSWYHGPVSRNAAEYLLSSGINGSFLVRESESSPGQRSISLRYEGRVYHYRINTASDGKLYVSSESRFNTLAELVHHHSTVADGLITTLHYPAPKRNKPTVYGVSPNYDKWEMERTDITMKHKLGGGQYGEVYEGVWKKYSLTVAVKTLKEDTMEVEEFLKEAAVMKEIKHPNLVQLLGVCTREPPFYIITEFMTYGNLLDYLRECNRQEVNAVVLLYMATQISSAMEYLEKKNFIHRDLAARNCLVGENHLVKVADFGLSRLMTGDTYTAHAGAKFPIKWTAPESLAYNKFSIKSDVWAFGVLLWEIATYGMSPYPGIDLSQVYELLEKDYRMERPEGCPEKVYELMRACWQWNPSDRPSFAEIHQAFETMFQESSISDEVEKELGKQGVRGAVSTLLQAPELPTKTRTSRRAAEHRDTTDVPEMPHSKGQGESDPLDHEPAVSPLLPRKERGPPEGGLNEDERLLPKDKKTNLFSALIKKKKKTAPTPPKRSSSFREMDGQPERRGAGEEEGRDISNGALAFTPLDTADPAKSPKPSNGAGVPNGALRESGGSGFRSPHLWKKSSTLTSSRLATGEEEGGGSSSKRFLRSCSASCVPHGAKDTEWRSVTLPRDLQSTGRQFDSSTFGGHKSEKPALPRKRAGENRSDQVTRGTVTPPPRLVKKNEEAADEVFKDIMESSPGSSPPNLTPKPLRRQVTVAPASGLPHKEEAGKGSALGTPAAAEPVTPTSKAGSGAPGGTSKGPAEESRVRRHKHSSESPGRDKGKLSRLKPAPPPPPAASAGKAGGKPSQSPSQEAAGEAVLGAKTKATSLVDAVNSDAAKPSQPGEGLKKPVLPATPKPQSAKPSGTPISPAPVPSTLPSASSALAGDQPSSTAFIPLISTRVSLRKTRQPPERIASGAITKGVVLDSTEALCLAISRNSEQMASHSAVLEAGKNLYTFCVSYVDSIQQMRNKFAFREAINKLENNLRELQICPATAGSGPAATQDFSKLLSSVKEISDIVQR
T4 sequence (Q9H2X6 whole entry): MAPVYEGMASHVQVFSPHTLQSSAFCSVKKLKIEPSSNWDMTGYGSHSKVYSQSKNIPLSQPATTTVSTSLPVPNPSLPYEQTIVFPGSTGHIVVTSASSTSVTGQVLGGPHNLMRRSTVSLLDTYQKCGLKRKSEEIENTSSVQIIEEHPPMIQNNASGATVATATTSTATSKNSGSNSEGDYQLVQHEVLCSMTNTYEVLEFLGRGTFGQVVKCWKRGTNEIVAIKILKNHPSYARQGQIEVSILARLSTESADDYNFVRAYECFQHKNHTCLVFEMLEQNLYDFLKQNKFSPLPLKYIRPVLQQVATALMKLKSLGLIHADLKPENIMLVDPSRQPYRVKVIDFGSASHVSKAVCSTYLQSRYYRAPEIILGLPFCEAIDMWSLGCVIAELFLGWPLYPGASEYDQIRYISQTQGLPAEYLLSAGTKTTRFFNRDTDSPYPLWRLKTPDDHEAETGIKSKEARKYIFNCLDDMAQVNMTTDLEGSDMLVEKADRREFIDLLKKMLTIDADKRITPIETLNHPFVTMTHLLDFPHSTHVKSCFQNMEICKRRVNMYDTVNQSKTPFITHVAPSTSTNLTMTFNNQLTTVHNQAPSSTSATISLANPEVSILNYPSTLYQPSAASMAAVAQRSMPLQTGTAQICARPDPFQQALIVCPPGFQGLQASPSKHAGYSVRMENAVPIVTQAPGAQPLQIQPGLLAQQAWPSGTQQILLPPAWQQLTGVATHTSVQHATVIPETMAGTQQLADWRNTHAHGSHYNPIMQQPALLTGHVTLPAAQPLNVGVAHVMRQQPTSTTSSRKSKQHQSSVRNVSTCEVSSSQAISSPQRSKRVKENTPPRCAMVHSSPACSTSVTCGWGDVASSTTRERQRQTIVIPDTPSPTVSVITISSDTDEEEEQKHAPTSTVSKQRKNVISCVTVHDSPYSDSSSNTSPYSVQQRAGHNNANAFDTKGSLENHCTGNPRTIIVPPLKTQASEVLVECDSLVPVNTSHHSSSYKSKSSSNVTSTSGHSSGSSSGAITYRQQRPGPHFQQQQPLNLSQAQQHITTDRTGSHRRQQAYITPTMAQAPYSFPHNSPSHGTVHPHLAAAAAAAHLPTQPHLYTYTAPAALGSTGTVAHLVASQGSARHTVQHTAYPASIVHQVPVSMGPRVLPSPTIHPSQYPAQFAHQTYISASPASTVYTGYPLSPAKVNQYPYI

Row | Sequence | % activity [1] [%] | % activity [2] [%] | % activity [3] [%] | % activity [4] [%] | % activity [5] [%] | % activity [6] [%] | % activity [7] [%]
1 | FAKLAARLYRKALARQLGVAA [MMI-0300] | 87 | 82 | 101 | 73 | 69 | 97 | 67
2 | HRRIKAWLKKIKALARQLGVAA (Mammalian) [MMI-0500] | 19 | 3 | 51 | 38 | 16 | 32 | 72
3 | KAFAKLAARLYRKALARQLGVAA [MMI-0400] | 90 | 75 | 89 | 90 | 84 | 99 | 76
4 | YARAAARQARAKALNRQLGVA (Mammalian) [MMI-0200] |  | 100 | 99 |  |  | 100 | 93
